Tests used:
[1] = system: YAP1; assay: YAP1 expression by western blotting; type: cell-based, human; conditions: basal-type cells
Method: Whole cell lysates were extracted using RIPA buffer (Thermo Scientific) supplemented with 10 μL/mL Halt™ Protease Inhibitor Cocktail Kit (Life Technologies) and 30 μL/mL Halt™ Phosphatase Inhibitor Cocktail Kit (Life Technologies). The protein concentrations were determined using a Pierce™ BCA Protein Assay Kit (Life Technologies), and the protein were separated on NuPAGE® 4-12% Bis-Tris Gel (Life Technologies) according to the manufacturer's protocol. COX2 (D5H5), NANOG (D73G4), OCT4 (D7O5Z), CD133 (A3G6K), Snail (C15D3), ZEB1 (D80D3), Vimentin (D21H3), CDH2 (D4R1H), CDH1 (24E10), p-EGFR (D7A5), EGFR (D38B1), p-AKT (D9E), AKT (cat #, 9272), p-ERK (D13.14.4E), ERK (137F5), p-YAP1 (D9W2I), p-Src (cat #, 2101), Src (36D10), DNMT1 (D63A6), DNMT3A (D23G1), and DNMT3B (D7O7O) antibodies were obtained from Cell Signaling Technology (Danvers, Mass., USA), except for SOX2 (EPR3131; Abcam, Cambridge, USA), YAP1 (ab52771; Abcam), CD24 (cat #, AF5247-SP; R&D Systems, Minneapolis USA) and β-actin (A2228; Sigma-Aldrich). Secondary horseradish peroxidase (HRP)-conjugated antibodies were obtained from Cell Signaling Technology, and chemiluminescent detection of HRP-labeled antibodies was performed using Amersham ECL Prime Western Blotting Detection Reagent (GE Healthcare, Piscataway, USA). As loading control, β-actin was used.

[2] = system: SOX2; assay: SOX2 expression by western blotting / flow cytometry; type: cell-based, human; conditions: basal-type cells
Method: Whole cell lysates were extracted using RIPA buffer (Thermo Scientific) supplemented with 10 μL/mL Halt™ Protease Inhibitor Cocktail Kit (Life Technologies) and 30 μL/mL Halt™ Phosphatase Inhibitor Cocktail Kit (Life Technologies). The protein concentrations were determined using a Pierce™ BCA Protein Assay Kit (Life Technologies), and the protein were separated on NuPAGE® 4-12% Bis-Tris Gel (Life Technologies) according to the manufacturer's protocol. […]
For extracellular staining, cells (1×10^6/100 μL stain buffer) were incubated with PE-Vio770-conjugated anti-human CD133 (293C3; Miltenyi Biotec, Auburn, USA) or PE-conjugated anti-human CD24 antibody (cat #, 560991; BD Biosciences) for 30 min at 4° C. in dark. […] Data were acquired on a BD FACSCalibur flow cytometer (BD Biosciences) using BD CellQuest Pro software (BD Biosciences) and analyzed with FlowJo software v10.1 (Tree Star, Ashland, USA).

B1: EGF: Recombinant human epidermal growth factor (EGF) (protein, UniProt P01133 23-1207, looked up)
Pro-epidermal growth factor: PQHWSCPEGTLAGNGNSTCVGPAPFLIFSHGNSIFRIDTEGTNYEQLVVDAGVSVIMDFHYNEKRIYWVDLERQLLQRVFLNGSRQERVCNIEKNVSGMAINWINEEVIWSNQQEGIITVTDMKGNNSHILLSALKYPANVAVDPVERFIFWSSEVAGSLYRADLDGVGVKALLETSEKITAVSLDVLDKRLFWIQYNREGSNSLICSCDYDGGSVHISKHPTQHNLFAMSLFGDRIFYSTWKMKTIWIANKHTGKDMVRINLHSSFVPLGELKVVHPLAQPKAEDDTWEPEQKLCKLRKGNCSSTVCGQDLQSHLCMCAEGYALSRDRKYCEDVNECAFWNHGCTLGCKNTPGSYYCTCPVGFVLLPDGKRCHQLVSCPRNVSECSHDCVLTSEGPLCFCPEGSVLERDGKTCSGCSSPDNGGCSQLCVPLSPVSWECDCFPGYDLQLDEKSCAASGPQPFLLFANSQDIRHMHFDGTDYGTLLSQQMGMVYALDHDPVENKIYFAHTALKWIERANMDGSQRERLIEEGVDVPEGLAVDWIGRRFYWTDRGKSLIGRSDLNGKRSKIITKENISQPRGIAVHPMAKRLFWTDTGINPRIESSSLQGLGRLVIASSDLIWPSGITIDFLTDKLYWCDAKQSVIEMANLDGSKRRRLTQNDVGHPFAVAVFEDYVWFSDWAMPSVMRVNKRTGKDRVRLQGSMLKPSSLVVVHPLAKPGADPCLYQNGGCEHICKKRLGTAWCSCREGFMKASDGKTCLALDGHQLLAGGEVDLKNQVTPLDILSKTRVSEDNITESQHMLVAEIMVSDQDDCAPVGCSMYARCISEGEDATCQCLKGFAGDGKLCSDIDECEMGVPVCPPASSKCINTEGGYVCRCSEGYQGDGIHCLDIDECQLGEHSCGENASCTNTEGGYTCMCAGRLSEPGLICPDSTPPPHLREDDHHYSVRNSDSECPLSHDGYCLHDGVCMYIEALDKYACNCVVGYIGERCQYRDLKWWELRHAGHGQQQKVIVVAVCVVVLVMLLLLSLWGAHYYRTQKLLSKNPKNPYEESSRDVRSRRPADTEDGMSSCPQPWFVVIKEHQDLKNGGQPVAGEDGQAADGSMQPTSWRQEPQLCGMGTEQGCWIPVSSDKGSCPQVMERSFHMPSYGTQTLEGGVEKPHSLLSANPLWQQRALDPPHQMELTQ
modifications: Pro-epidermal growth factor
[1]
  YAP1 expression: increased
[2]
  SOX2 expression: increased
